Assay results taken from patent US7303752B2, “Hookworm vaccine” (The George Washington University, priority 2001, dated 2007).

B1: Na-ASP-1: Necator americanus secreted protein antigen, SEQ ID NO: 2; Pichia-expressed recombinant (protein, listed as Necator americanus)
chain: MFSPVVVSVVFTIAFCNASPARDSFGCSNSGITDSDRQAFLDFHNNARRRVAKGLEDSNSGKLNPAKNMYKLSWDCAMEQQLQDAIQSCPSGFAGIQGVAQNTMSWSSSGGYPDPSVKIEPTLSGWWSGAKKNGVGPDNKYTGGGLFAFSNMVYSETTKLGCAYKVCGTKLAVSCIYNGVGYITNQPMWETGQACQTGADCSTYKNSGCEDGLCTKGPDVPETNQQCPSNTGMTDSVRDTFLSVHNEFRSSVARGLEPDALGGNAPKAAKMLKMVYDCEVEASAIRHGNKCVYQHSHGEDRPGLGENIYKTSVLKFDKNKAAKQASQLWWNELKEYGVGPSNVLTTALWNRPNMQIGHYTQMAWDTTYKLGCAVVFCNDFTFGVCQYGPGGNYMGHVIYTMGQPCSQCSPGATCSVTEGLCSAP
B2: Ac-AP: A. caninum factor Xa inhibitor anticoagulant, SEQ ID NO: 54; * marks the single dog with positive immune response (protein, listed as Ancylostoma caninum)
chain: KAYPECGENEWLDDCGTQKPCEAKCNEEPPEEEDPICRSRGCLLPPACVCKDGFYRDTVIGDCVREEECDQHEIIHV

Key:
CD-4+lymphocytes = assay: Intracellular cytokine staining of antigen-stimulated CD4+ lymphocytes of hookworm-infected residents; type: cell-based, human; conditions: CD4+ lymphocytes from whole blood of hookworm infected residents
Experimental: The underlying immunological mechanisms accounting for this observation has been investigated. Shown in FIGS. 40 and 41, CD-4+lymphocytes were gated from the whole blood of hookworm infected residents and stimulated with either L3 soluble hookworm antigen FIG. 40) or Pichia-expressed recombinant Na-ASP-1 (FIG. 41). Host cytokine production was measured by an intracellular cytokine staining technique. […] IL-10 is a strong immunomodulator with downregulatory, anti-inflammatory properties, and IL-4 is associated with antibody production and TH-2 type immunity.

A. caninum = assay: Canine vaccine trial with Ac-TMP, Ac-AP, Ac-APR-1, oral challenge with 400 A. caninum L3; type: in vivo, dog
Excerpt: Study dogs and animal husbandry: Following protocol approval by The George Washington University Institutional Animal Care and Use Committee (IACUC), purpose bred, parasite naïve, male beagles 8±1 week of age were purchased, identified by ear tattoo, and maintained in the AALAC (Association for Assessment and Accreditation of Laboratory Animal Care) accredited George Washington University Animal Research Facility. The dogs were housed in a room dedicated for the study, at a room temperature of 70±4° F., with 10-15 air changes per hour comprised of 100 percent fresh air, and 12 hr light cycles alternating with 12 hr dark cycles. The airflow and timer functions were monitored daily. The dogs were fed on a diet of Teklad Certified Dog Chow #8727, supplemented with a canned soft diet in the event of anorexia. The drinking water was piped from a filter plant and delivered via automatc water system; water analysis was performed by the U.S. Army Corps of Engineers. Water from the facilities automatic system is cultured for bacteria and fungi annually. The pens were flushed daily and sanitized every two weeks. Dogs within a given study group were permitted to live together and socialize prior to the hookworm larval challenge, but were caged individually post-infection. All dogs were quarantined for approximately one week before beginning the vaccine trial. Prior to vaccination a complete blood count (CBC), serum chemistries, and a pre-vaccination serum sample were obtained.
Vaccine study design and sample size: The vaccine trial was designed to test three different antigens, each formulated with alum, as well as an alum adjuvant control. A total of 24 dogs were randomly assigned into four groups comprised of 6 dogs each. The canine sample size was selected on the ability to detect a 40-50 percent reduction in the numbers of adult hookworms in the small intestines of the vaccinated group relative to control dogs, at a statistical power of 80 percent (alpha=0.05, two-tailed). The data were derived from the mean and standard deviation of adult hookworms previously recovered from age-matched dogs infected with 400 A. caninum L3 (Hotez et al, 2002).
Recombinant Antigens: Each group of 6 dogs was vaccinated with recombinant hookworm proteins expressed as fusion proteins either in Escherichia coli or in an insect cell line with baculovirus. Ac-AP (Cappello et al, 1995; 1996) and Ac-TMP, were expressed in E. coli as pET 28 (Novagen) fusion proteins containing a polyhistidine tag (Cappello et al, 1996). Ac-APR-1 (Harrop et al, 1996) was expressed in a baculovirus pBacPAK6 vector (Clontech), modified to contain a polyhistidine-encoding sequence and additional restriction enzyme sites (Brindley et al, 2001). Recombinant Ac-AP and Ac-TMP fusion proteins were then purified by nickel affinity chromatography, followed by a second step of purification. In the case of Ac-AP (Cappello et al, 1995; 1996), the recombinant protein was purified by mono-S (Amersham-Pharmacia) ion exchange chromatography, while Ac-TMP (Zhan et al, 2002) was purified by superdex 75 (Amersham-Pharmacia) gel filtration chromatography. Ac-APR-1 (Harrop et al, 1996) was purified by substrate affinity chromatography using pepstatin agarose (Brindley et al, 2001). The antigen stock protein concentration was determined by Pierce Micro BCA assay (Pierce Chemicals) or by the absorbance of the sample at […] using an extinction coefficient that was calculated from the deduced amino acid composition of the fusion protein. The amount of alum adsorbed protein in each dose of antigen was measured by the Pierce Micro BCA assay using a bovine serum albumin standard. The relative purity of each of the antigens relative to contaminating E. coli or insect cell proteins was determined by analysis on sodium dodecyl sulfate polyacrylamide gel electrophoresis (SDS-PAGE). […]

[1] = system: antigen-specific canine IgG1 antibodies; assay: ELISA of antigen-specific canine IgG1, trial with Ac-TMP, Ac-AP, Ac-APR-1; type: in vivo, dog; conditions: five of the six vaccinated dogs
Experimental: Canine Immunizations: A four-dose immunization schedule was selected (Table II). Each of the dogs was vaccinated by subcutaneous immunization at two sites in the shoulder, through a 22 gauge needle. The volume of the injections ranged between 0.5 and 1.0 ml. Four doses of each antigen were administered over a 38-day period. The first two injections (primary immunization) were administered on days 1 and 4, and the final two immunizations (boosts) were administered on days 34 and 38. Dogs in the control group were injected with an equivalent amount of alum.
Canine antibody measurements: Blood was collected weekly by venipuncture and the serum was separated and stored frozen at −20° C. Antigen-specific canine IgG1 antibodies were measured by indirect enzyme-linked immunosorbent assay (ELISA). Other IgG subclasses were not measured due to the unavailability of suitable high-quality canine-specific reagents. The optimal concentrations of sample sera and enzyme-linked detection antibody were determined by checkerboard titrations. Optimal antigen concentrations were determined by using a saturation technique. […] The plates were incubated in the dark for 30 minutes and read at a wavelength of 405 nm on a SpectraMax 240 PC reader (Molecular Devices, Sunnyvale, Calif.) with SOFTmax Pro software (Molecular Devices, Sunnyvale, Calif.). […]

[2] = single dog with positive immune response

Row | Molecule | host cytokine production (CD-4+lymphocytes) | % Decrease of adult hookworms in the small intestines relative to alum-injected dogs (A. caninum; group) [%] | % Increase of adult hookworms in the colons relative to alum-injected dogs (A. caninum; group) [%] | adult A. caninum hookworms in the colons, Median (A. caninum; group median, alum control 4) | adult hookworms in the small intestines, Median (A. caninum; group median, alum control 180) | small intestine to colon hookworm burden ratio (A. caninum; single dog with anti-Ac-AP antibody response) | % Decrease of adult hookworms in the small intestine relative to alum-injected dogs (A. caninum; [2]) [%] | % Increase of adult hookworms in the colon relative to alum-injected dogs (A. caninum; [2]) [%] | adult A. caninum hookworms in the colon, Mean (A. caninum; [2]) | adult A. caninum hookworms in the colon, Median (A. caninum; [2]) | adult hookworms in the small intestine, Mean (A. caninum; [2]) | adult hookworms in the small intestine, Median (A. caninum; [2]) | immunological response to the antigen [1]
1 | B1 | high levels of IL-10 and IL-5, but not IL-4 |  |  |  |  |  |  |  |  |  |  |  | 
2 | B2 |  | 4.5 | 183 | 14 | 170 | 1.6 | 34.7 | 1083 | 71 | 71 | 115 | 115 | failed to respond immunologically
